Broadly, the stoichiometry N is the number of molecules, sites or subunits per partner or assembly.

The target in test [1] is MsDps2 protein (second Dps homologue of Mycobacterium smegmatis) (Mycobacterium smegmatis). Put plainly: native gel or EMSA; 10% native gel; BSA and ferritin as markers; oligomeric state of the purified protein. Background: A gel shift assay detects complexes by their altered migration in electrophoresis.
Test [2] has the same target. Nature of the test: negative-stain transmission electron microscopy; MsDps2 in 20 mM Tris, 200 mM NaCl on copper grids, stained with uranyl acetate, 80 kV, 50,000x.
In test [3] the target is MsDps2ΔN15 (MsDps2 lacking 15 amino acids from the N-terminus) (Mycobacterium smegmatis). Nature of the test: native gel or EMSA; 10% native gel; BSA and ferritin as markers; oligomeric state of the purified protein.

With “MsDps2 protein (second Dps homologue of Mycobacterium smegmatis) (natural protein)”, the stoichiometry N in test [1] and in test [2] was 12 in each case.

In test [3], “MsDps2ΔN15 (MsDps2 lacking 15 amino acids from the N-terminus) (domain or fragment)” came in with a stoichiometry N of 12.

These data come from article PMC2779847.
